Test results: the supplement of paper PMC7877785
± gives the uncertainty stated by the source.

Assay: self-splicing fitness, log relative to wild type (ln ratio); higher = more splicing; Tetrahymena group I intron in knt gene, E. coli kanamycin selection, DiMSum; sequences stand for … in CUCUCU…GGAGGGAAAAGUUAUCAGGCAUGCACCUGGUAGCUAGUCUUUAAACCAAUAGAUUGCAUCGGUUUAAAAGGCAAGACCGUCAAAUUGCGGGAAAGGGGUCAACAGCCGUUCAGUACCAAGUCUCAGGGGAAACUUUGAGAUGGCCUUGCAAAGGGUAUGGUAAUAAGCUGACGGACAUGGUCCUAACCACGCAGCCAAGUCCUAAGUCAACAGAUCUUCUGUUGAUAUGGAUGCAGUUCACAGACUAAAUGUCGGUCGGGGAAGAUGUAUUCUUCUCAUAAGAUAUAGUCGGACCUCUCCUUAAUGGGAGCUAGCGGAUGAAGUGAUGCAACACUGGAGCCGCUGGGAACUAAUUUGUAUGCGAAAGUAUAUUGAUUAGUUUUGGAGUACUCGUGGUCG
How it was run: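 Six replicate transformations of E. coli BL21(DE3) with a pET-22b(+) library were grown overnight at 37°C or 30°C. The library randomised all eight P1ex-region intron nucleotides, the intron lying in the knt kanamycin-resistance gene, and plates were LB agar with or without 25 μg/mL kanamycin plus 100 μg/mL carbenicillin, 50 μM IPTG and 0.2% rhamnose. Pooled colonies were amplicon-sequenced on an Illumina HiSeq 2500, and fitness is the DiMSum error-weighted combination of wild-type-normalised replicate fold changes, kanamycin versus none.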

Sequence | self-splicing fitness (ln) (30 °C) | self-splicing fitness (ln) (37 °C)
CCUUAGCAAUAUUACGGGAA | -3.02 ± 0.18 | -2.76 ± 0.19
CCUUAGCAAUAUUACGGGAU | -3.68 ± 0.29 | -2.68 ± 0.27
CCUUAGCAAUAUUACGGGGA | -3.75 ± 0.29 | -2.63 ± 0.23
CCUUAGCAAUAUUACGGGUC | -4.43 ± 0.3 | -2.86 ± 0.38
CCUUAGCAAUAUUACGGGUG | -1.5 ± 0.065 | -0.759 ± 0.081
CCUUAGCAAUAUUACGGUGU | -3.82 ± 0.24 | -2.81 ± 0.23
CCUUAGCAAUAUUACGUACG | -2.45 ± 0.22 | -2.2 ± 0.29
CCUUAGCAAUAUUACGUAGA | -4.13 ± 0.34 | -0.769 ± 0.17
CCUUAGCAAUAUUACGUCAA | -2.87 ± 0.33 | –
CCUUAGCAAUAUUACGUCCA | – | -1.92 ± 0.33
CCUUAGCAAUAUUACGUGUC | -2.66 ± 0.26 | -0.776 ± 0.21
CCUUAGCAAUAUUACGUUCA | -3.3 ± 0.47 | -2.9 ± 0.47
CCUUAGCAAUAUUACGUUCC | -3.14 ± 0.31 | -2.51 ± 0.34
CCUUAGCAAUAUUACGUUGC | -3.68 ± 0.38 | -3.31 ± 0.3
CCUUAGCAAUAUUACGUUUU | -4.8 ± 0.31 | -2.85 ± 0.28
CGAAAGCAAUAUUACGACAU | -2.721 ± 0.017 | -1.41 ± 0.034
CGAAAGCAAUAUUACGACCA | -1.24 ± 0.14 | -1.24 ± 0.15
CGAAAGCAAUAUUACGACGA | -0.59 ± 0.094 | 0.312 ± 0.09
CGAAAGCAAUAUUACGAGAU | -3.54 ± 0.34 | -1.55 ± 0.17
CGAAAGCAAUAUUACGAGCG | -0.778 ± 0.098 | -0.277 ± 0.11
CGAAAGCAAUAUUACGCCGG | -0.615 ± 0.14 | 0.34 ± 0.17
CGAAAGCAAUAUUACGCCUU | -2.73 ± 0.44 | -1.11 ± 0.28
CGAAAGCAAUAUUACGCUGG | -1.66 ± 0.11 | -0.903 ± 0.14
CGAAAGCAAUAUUACGGCGU | -0.379 ± 0.074 | 0.313 ± 0.11

Sequence | self-splicing fitness (ln) (30 °C) | self-splicing fitness (ln) (37 °C)
CGAAAGCAAUAUUACGGCUA | -1.72 ± 0.13 | -1.6 ± 0.14
CGAAAGCAAUAUUACGGGUG | 0.0165 ± 0.043 | 0.189 ± 0.063
CGAAAGCAAUAUUACGGUCC | -0.283 ± 0.087 | -0.129 ± 0.13
CGAAAGCAAUAUUACGGUGG | -0.576 ± 0.046 | 0.0831 ± 0.066
CGAAAGCAAUAUUACGUAAA | -2.45 ± 0.23 | -1.92 ± 0.31
CGAAAGCAAUAUUACGUAUC | -3.76 ± 0.2 | -3.21 ± 0.23
CGAAAGCAAUAUUACGUCGG | -0.496 ± 0.06 | -0.0301 ± 0.071
CGAAAGCAAUAUUACGUCUA | -0.692 ± 0.25 | -0.962 ± 0.17
CGAAAGCAAUAUUACGUGGG | -2.3 ± 0.098 | -2.46 ± 0.14
CGAAAGCAAUAUUACGUGUC | -3.94 ± 0.34 | -2.71 ± 0.22
CGACAGCAAUAUUACGAAAA | -3.75 ± 0.26 | -1.93 ± 0.2
CGACAGCAAUAUUACGAACA | -2.16 ± 0.14 | -0.404 ± 0.11
CGACAGCAAUAUUACGACGA | -1.01 ± 0.12 | 0.0299 ± 0.14
CGACAGCAAUAUUACGACGC | -2.21 ± 0.11 | -0.587 ± 0.12
CGACAGCAAUAUUACGAGAU | -3.16 ± 0.23 | -2.01 ± 0.21
CGACAGCAAUAUUACGAGGU | -3.14 ± 0.33 | -1.73 ± 0.2
CGACAGCAAUAUUACGAUAG | -0.383 ± 0.06 | -0.728 ± 0.07
CGACAGCAAUAUUACGAUGA | -0.751 ± 0.075 | -0.41 ± 0.075
CGACAGCAAUAUUACGAUGU | -2.74 ± 0.15 | -2.59 ± 0.18
CGACAGCAAUAUUACGCCCC | -1.19 ± 0.16 | 0.564 ± 0.24
CGACAGCAAUAUUACGCGAC | – | -2.98 ± 0.26
CGACAGCAAUAUUACGGAAU | -2.5 ± 0.24 | -2.54 ± 0.26
CGACAGCAAUAUUACGGAUA | -2.09 ± 0.14 | -1.91 ± 0.15
CGACAGCAAUAUUACGGAUG | -0.977 ± 0.051 | -0.0449 ± 0.059
